From FireProtDB
Several values for one entry are separate records, joined by “and”; a condition that tells them apart may be missing. Equal entries are not always repeated.

Settings: for Tm / change of melting temperature, mutant - wild type (higher = more stable) / unfolding enthalpy (calorimetric) / unfolding enthalpy (van 't Hoff) / heat capacity change of unfolding: Thermal
[1] = Bos taurus, pH 8, 30 °C, GdnHCl, CD, borate 10 mM, structure 1BP2
[2] = Homo sapiens, pH 7.4, 25 °C, GdnHCl, CD, PBS, structure 1TIT
[3] = Bos taurus, pH 8, DSC, HEPES 50mM, NaCl 150mM, structure 1IHG
[4] = Salmo salar, pH 7.1, CD, HEPES 10 mM, NaCl MgCl2 30 mM 3mM
[5] = Equus caballus, pH 6, 20 °C, GdnHCl, CD, MES 10 mM, NaCl 0.4 M, reversible: yes
[6] = Equus caballus, pH 7, 10 °C, GdnHCl, CD, sodium phosphate 0.1 M, reversible: yes
[7] = Equus caballus, pH 7, 10 °C, GdnHCl, Fluorescence, acetate/phosphate 50 mM/50 mM/
[8] = Equus caballus, pH 7, 22 °C, GdnHCl, Fluorescence, sodium phosphate 0.1 M, reversible: yes
[9] = Equus caballus, pH 7, 23 °C, GdnHCl, SAXS, Phosphate 100 mM, transition: 2
[10] = Equus caballus, pH 7, 25 °C, GdnHCl, DSC, cacodylic acid 0.03 M, NaCl 0.1 M, reversible: yes
[11] = Equus caballus, pH 12.7, 22 °C, GdnHCl, Fluorescence, NaOH, reversible: yes
[12] = Drosophila melanogaster, pH 7.5, 15 °C, GdnHCl, CD, Tris-HCl, NaCl 50 mM, structure 1SAN
[13] = Homo sapiens, pH 5, 25 °C, Urea, CD, sodium acetate 50 mM, structure 1TTG
[14] = Homo sapiens, pH 5, 25 °C, Urea, Fluorescence, Sodium acetate 50 mM, reversible: yes, structure 1TEN
[15] = Homo sapiens, pH 7.6, CD, Sodium phosphate 20 mM, NaCl 0.1 M, reversible: no, structure 1OWA
[16] = Bos taurus, pH 8, DSC, HEPES 50mM, NaCl 150mM
[17] = Homo sapiens, pH 7.5, Differential Scanning Fluorimetry, PBS, transition: 2, structure 1DXX
[18] = Homo sapiens, pH 7.5, CD, Tris-HCl, NaCl, structure 1DXX
[19] = Bos taurus, pH 4.4, DSC, Sodium acetate 25 mM, NaCl 100 mM, reversible: yes
[20] = Bos taurus, pH 4.8, DSC, Sodium acetate 25 mM, NaCl 100 mM, reversible: yes
[21] = Bos taurus, pH 5.3, DSC, Sodium acetate 25 mM, NaCl 100 mM, reversible: yes
[22] = Bos taurus, pH 7.55, DSC, Tris 0.09 M, reversible: yes
[23] = Bos taurus, pH 8, DSC, Sodium acetate 25 mM, NaCl 100 mM, reversible: yes
[24] = Homo sapiens, DSC, 1 X - PBS, Mg2+ 0.5 mM, structure 1AJE
[25] = Homo sapiens, pH 2.4, CD, glycine hydrochloride 20 mM, NaCl 1 M, reversible: yes, structure 1TTG
[26] = Homo sapiens, pH 7, CD, sodium phosphate 20 mM, NaCl 0.1 M, reversible: yes, structure 1TTG
[27] = Homo sapiens, pH 7, CD, sodium phosphate 20 mM, NaCl 1 M, reversible: yes, structure 1TTG
[28] = Homo sapiens, pH 7.3, 25 °C, GdnHCl, Fluorescence, Na2HPO4/NaH2PO4 20 mM, structure 1TIT
[29] = Rattus norvegicus, pH 8, 25 °C, Urea, Fluorescence, Tris-HCl 50 mM, MgCl2 4 mM, transition: 3, reversible: yes, structure 1QM4
[30] = Escherichia coli, pH 7, CD, phosphate 50 mM, reversible: yes

Homeotic protein antennapedia R306E|L310R|H317R|F318R, P02833 R306E L310R H317R F318R, sequence (P02833 whole entry R306E/L310R/H317R/F318R): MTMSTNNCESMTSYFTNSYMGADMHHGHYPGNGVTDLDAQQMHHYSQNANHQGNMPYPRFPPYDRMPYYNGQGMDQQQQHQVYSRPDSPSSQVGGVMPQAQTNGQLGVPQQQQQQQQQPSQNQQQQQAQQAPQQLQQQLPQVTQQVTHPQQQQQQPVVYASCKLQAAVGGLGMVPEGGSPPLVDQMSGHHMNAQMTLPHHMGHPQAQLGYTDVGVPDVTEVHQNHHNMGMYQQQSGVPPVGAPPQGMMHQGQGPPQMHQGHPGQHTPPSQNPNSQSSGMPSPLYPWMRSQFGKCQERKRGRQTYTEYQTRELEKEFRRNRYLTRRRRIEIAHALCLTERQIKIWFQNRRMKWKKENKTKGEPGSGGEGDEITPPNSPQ
Fibronectin D1544K, P02751, sequence (P02751 whole entry D1544K): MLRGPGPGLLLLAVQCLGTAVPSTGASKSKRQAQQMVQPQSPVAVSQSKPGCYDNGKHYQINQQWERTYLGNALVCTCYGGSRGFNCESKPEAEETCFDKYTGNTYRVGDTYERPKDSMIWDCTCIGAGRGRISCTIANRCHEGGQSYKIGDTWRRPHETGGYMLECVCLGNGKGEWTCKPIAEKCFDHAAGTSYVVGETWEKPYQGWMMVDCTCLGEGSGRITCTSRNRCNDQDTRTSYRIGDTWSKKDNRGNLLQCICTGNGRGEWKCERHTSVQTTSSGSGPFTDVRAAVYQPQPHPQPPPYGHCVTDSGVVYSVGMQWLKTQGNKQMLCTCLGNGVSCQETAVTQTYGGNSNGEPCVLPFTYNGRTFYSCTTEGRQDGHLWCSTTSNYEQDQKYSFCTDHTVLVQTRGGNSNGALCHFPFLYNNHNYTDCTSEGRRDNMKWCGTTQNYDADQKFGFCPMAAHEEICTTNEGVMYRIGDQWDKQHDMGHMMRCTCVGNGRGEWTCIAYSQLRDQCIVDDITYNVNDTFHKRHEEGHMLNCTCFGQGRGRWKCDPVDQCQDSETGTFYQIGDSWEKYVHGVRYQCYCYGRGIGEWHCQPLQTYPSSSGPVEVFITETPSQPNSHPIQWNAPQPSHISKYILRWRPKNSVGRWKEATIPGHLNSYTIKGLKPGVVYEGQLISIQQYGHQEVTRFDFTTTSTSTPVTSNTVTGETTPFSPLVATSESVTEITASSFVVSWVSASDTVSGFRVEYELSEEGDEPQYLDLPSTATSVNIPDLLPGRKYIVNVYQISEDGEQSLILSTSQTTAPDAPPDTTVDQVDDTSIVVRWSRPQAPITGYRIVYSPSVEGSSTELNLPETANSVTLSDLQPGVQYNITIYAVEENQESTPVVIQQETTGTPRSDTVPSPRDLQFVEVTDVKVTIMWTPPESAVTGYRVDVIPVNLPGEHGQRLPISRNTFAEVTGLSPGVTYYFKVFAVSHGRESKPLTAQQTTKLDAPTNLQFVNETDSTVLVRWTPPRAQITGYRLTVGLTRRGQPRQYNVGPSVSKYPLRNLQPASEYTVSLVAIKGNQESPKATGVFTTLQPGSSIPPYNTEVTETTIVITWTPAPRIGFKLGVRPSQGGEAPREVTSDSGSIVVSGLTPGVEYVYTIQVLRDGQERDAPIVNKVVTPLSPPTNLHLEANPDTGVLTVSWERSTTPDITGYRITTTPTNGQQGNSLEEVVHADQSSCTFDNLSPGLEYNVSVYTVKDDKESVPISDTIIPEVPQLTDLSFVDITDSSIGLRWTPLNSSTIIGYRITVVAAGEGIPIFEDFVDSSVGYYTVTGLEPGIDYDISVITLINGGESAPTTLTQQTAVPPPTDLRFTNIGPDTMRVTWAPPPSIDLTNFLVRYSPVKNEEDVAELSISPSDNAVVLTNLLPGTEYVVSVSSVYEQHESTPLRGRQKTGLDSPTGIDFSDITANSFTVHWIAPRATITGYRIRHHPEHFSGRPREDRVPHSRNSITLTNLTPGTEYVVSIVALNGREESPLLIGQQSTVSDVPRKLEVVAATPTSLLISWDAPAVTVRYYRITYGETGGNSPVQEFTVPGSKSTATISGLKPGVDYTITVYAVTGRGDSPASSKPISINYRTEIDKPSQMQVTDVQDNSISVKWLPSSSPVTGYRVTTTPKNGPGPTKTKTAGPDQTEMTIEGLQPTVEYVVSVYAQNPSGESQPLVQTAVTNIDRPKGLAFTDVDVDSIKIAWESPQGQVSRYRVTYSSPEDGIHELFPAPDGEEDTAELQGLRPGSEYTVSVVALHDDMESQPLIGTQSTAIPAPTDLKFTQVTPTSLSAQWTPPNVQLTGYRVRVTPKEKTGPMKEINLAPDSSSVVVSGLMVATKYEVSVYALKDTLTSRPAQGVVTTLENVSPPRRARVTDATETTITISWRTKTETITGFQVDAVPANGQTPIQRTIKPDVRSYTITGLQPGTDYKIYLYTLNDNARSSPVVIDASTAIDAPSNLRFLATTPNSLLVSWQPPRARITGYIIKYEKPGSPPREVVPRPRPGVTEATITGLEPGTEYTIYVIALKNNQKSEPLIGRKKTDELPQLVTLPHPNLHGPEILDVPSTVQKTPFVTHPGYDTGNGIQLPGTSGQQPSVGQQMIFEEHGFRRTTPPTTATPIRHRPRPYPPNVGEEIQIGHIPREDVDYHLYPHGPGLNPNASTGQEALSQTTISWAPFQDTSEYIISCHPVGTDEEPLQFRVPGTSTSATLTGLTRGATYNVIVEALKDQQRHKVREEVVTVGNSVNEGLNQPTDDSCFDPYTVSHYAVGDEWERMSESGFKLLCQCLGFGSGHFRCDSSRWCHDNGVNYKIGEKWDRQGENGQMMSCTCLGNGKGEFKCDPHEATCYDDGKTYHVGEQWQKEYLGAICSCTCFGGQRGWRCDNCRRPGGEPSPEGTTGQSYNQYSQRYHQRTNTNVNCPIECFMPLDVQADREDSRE
Cytochrome c wild type, P00004, sequence (P00004 whole entry): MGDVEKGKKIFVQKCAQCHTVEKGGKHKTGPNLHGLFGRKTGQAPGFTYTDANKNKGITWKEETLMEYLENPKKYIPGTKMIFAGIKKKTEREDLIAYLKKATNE
Peptidyl-prolyl cis-trans isomerase D K227A, P26882, sequence (P26882 whole entry K227A): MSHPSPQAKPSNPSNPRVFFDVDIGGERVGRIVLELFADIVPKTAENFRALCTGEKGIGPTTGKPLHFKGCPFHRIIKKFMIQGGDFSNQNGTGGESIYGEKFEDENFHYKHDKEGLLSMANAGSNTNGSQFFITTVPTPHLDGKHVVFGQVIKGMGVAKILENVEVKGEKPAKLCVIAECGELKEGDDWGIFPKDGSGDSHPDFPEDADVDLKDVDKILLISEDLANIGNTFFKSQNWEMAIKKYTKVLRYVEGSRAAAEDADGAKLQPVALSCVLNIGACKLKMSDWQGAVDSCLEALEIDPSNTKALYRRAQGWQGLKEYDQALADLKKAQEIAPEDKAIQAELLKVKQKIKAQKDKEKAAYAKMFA
Carbonic anhydrase 2 wild type, P00921, sequence (P00921 whole entry): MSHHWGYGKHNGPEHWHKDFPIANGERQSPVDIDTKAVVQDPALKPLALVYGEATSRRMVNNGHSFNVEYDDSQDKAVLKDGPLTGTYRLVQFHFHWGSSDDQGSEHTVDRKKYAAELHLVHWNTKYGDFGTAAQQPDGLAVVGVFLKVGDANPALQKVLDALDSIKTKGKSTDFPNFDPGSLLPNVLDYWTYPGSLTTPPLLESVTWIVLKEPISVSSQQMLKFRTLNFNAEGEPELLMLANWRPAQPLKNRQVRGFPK
Endo-1,4-beta-xylanase wild type, Q59962, sequence (Q59962 entry or part of it): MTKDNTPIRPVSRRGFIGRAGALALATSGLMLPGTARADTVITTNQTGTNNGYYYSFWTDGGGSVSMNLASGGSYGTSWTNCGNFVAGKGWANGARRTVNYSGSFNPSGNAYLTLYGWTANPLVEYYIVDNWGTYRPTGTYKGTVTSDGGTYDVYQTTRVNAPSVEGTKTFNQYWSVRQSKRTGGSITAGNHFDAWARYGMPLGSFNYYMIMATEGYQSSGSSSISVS
S-adenosylmethionine synthase isoform type-1 R265H, P13444, sequence (P13444 whole entry R265H, canonical isoform): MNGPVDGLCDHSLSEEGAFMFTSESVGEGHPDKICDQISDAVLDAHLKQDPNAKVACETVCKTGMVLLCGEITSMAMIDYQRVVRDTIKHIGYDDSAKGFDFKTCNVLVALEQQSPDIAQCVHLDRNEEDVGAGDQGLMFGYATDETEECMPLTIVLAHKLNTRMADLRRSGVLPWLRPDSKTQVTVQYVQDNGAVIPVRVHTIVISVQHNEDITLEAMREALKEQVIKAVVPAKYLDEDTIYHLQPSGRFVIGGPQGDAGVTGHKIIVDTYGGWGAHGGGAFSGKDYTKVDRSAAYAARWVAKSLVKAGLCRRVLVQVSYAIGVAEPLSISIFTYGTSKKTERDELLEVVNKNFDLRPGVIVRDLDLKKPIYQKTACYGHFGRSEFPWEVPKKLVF
Peptidyl-prolyl cis-trans isomerase D K308A, P26882, sequence (P26882 whole entry K308A): as the sequence (P26882 whole entry K227A) above, with A227K, K308A counted along it
Tropomyosin alpha-1 chain G27A, Q91472, sequence (Q91472 entry or part of it G27A | G27A): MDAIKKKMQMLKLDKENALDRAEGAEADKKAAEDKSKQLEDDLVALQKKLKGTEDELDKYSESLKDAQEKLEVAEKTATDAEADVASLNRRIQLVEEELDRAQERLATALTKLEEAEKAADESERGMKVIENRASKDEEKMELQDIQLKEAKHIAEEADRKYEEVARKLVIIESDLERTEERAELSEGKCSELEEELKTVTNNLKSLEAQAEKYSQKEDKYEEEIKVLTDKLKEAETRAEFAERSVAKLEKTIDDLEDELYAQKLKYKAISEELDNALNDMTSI

Substance: Phospholipase A2 H70A, P00593
- ddG of mutation (higher = less stable) [1]: 3.1 kcal/mol
- denaturant m value [1]: 1.02 kcal/mol/M
- denaturant midpoint (higher = more stable) [1]: 6.3 M
- unfolding free energy [1]: 6.4 kcal/mol

Substance: Titin L12717A, Q8WZ42
- ddG of mutation (higher = less stable) [2]: 2.67 kcal/mol

Substance: Creatine kinase B-type wild type, P00567
- unfolding free energy (Oryctolagus cuniculus, pH 7.4, 22 °C, GdnHCl, CD, Sodium phosphate 100 mM): 6.94 kcal/mol
- Tm (Oryctolagus cuniculus, pH 8, DSC, HEPES-NaOH 30 mM, reversible: no): 55.9 °C

Substance: Peptidyl-prolyl cis-trans isomerase D K308A, P26882
- Tm [3]: 45 °C
- change of melting temperature, mutant - wild type (higher = more stable) [3]: -0.07 °C
- unfolding enthalpy (calorimetric) [3]: 155 kcal/mol

Substance: Tropomyosin alpha-1 chain wild type, Q91472
- Tm [4]: 37 °C

Substance: Dystrophin, P11532 C10S C188S
- Tm (Homo sapiens, pH 7, CD, NaH2PO4, NaCl, reversible: no, structure 1DXX): 61 °C
- Tm (Homo sapiens, pH 7, Fluorescence, NaH2PO4, NaCl, reversible: no, structure 1DXX): 62.4 °C
- unfolding free energy (Homo sapiens, pH 7, Urea, CD, NaH2PO4, NaCl, reversible: yes, structure 1DXX): 9.81 kcal/mol
- unfolding free energy (Homo sapiens, pH 7, Urea, Fluorescence, NaH2PO4, NaCl, reversible: yes, structure 1DXX): 12.8 kcal/mol

Substance: Cytochrome c wild type, P00004
- unfolding free energy (Equus caballus, pH 1.7, 20 °C, HCl, CD, HCl 9 mM): 3.3 kcal/mol
- unfolding free energy (Equus caballus, pH 4.9, 10 °C, GdnHCl, Fluorescence, sodium acetate 0.2 M): 8.2 kcal/mol
- denaturant m value [5]: 1.61 kcal/mol/M
- denaturant midpoint (higher = more stable) [5]: 1.27 M
- unfolding free energy [5]: 2.04 kcal/mol
- unfolding free energy (Equus caballus, pH 6.5, 25 °C, GdnHCl, CD, HCl 0.1 M, reversible: yes): 12.7 kcal/mol
- denaturant m value [6]: 3.8 kcal/mol/M and 3.2 kcal/mol/M
- unfolding free energy [6]: 20.4 kcal/mol and 12.1 kcal/mol
- denaturant m value [7]: 3.9 kcal/mol/M
- denaturant midpoint (higher = more stable) [7]: 2.67 M
- unfolding free energy [7]: 10.4 kcal/mol
- unfolding free energy (Equus caballus, pH 7, 21 °C, GdnHCl, Absorbance, phosphate 10 mM): 8.5 kcal/mol
- unfolding free energy (Equus caballus, pH 7, 21 °C, GdnHCl, CD, phosphate 10 mM): 8.4 kcal/mol
- unfolding free energy (Equus caballus, pH 7, 21 °C, GdnHCl, Fluorescence, phosphate 10 mM): 7.4 kcal/mol
- denaturant midpoint (higher = more stable) [8]: 5 M
- unfolding free energy [8]: 18 kcal/mol
- denaturant m value [9]: 4.1 kcal/mol/M and 2.5 kcal/mol/M
- unfolding free energy [9]: 10.7 kcal/mol and 7.2 kcal/mol
- unfolding free energy (Equus caballus, pH 7, 25 °C, GdnHCl, Absorbance, cacodylate 0.03 M, KCl 0.1 M, reversible: yes): 8.7 kcal/mol
- denaturant m value [10]: 2 kcal/mol/M
- denaturant midpoint (higher = more stable) [10]: 2.54 M
- unfolding free energy [10]: 6 kcal/mol
- unfolding free energy (Equus caballus, pH 7, 25 °C, SDS, CD, Phosphate 50 mM): 3.59 kcal/mol
- denaturant midpoint (higher = more stable) [11]: 2.6 M
- unfolding free energy [11]: 3 kcal/mol

Substance: Phospholipase A2 H70Q, P00593
- ddG of mutation (higher = less stable) [1]: 0.6 kcal/mol
- denaturant m value [1]: 1.34 kcal/mol/M
- denaturant midpoint (higher = more stable) [1]: 6.6 M
- unfolding free energy [1]: 8.9 kcal/mol

Substance: Homeotic protein antennapedia R306E|L310R|H317R|F318R, P02833 R306E L310R H317R F318R
- denaturant m value [12]: 1.6 kcal/mol/M and 0.79 kcal/mol/M
- denaturant midpoint (higher = more stable) [12]: 2.14 M and 1.32 M

Substance: Tropomyosin alpha-1 chain G27A, Q91472
- Tm [4]: 37.3 °C
- change of melting temperature, mutant - wild type (higher = more stable) [4]: 0.3 °C

Substance: Fibronectin P1624A, P02751
- ddG of mutation (higher = less stable) [13]: 0.21 kcal/mol

Substance: MKLWFSTLKLKKAA [wild type]
- Tm (Bacillus licheniformis, pH 5, Fluorescence, Sodium acetate 50 mM, reversible: no): 65 °C
- Tm (Bacillus licheniformis, pH 6, Fluorescence, Sodium phosphate 50 mM): 64.7 °C
- unfolding enthalpy (van 't Hoff) (Bacillus licheniformis, pH 7, Fluorescence, Sodium phosphate 50 mM, reversible: yes): 99.9 kcal/mol and 112 kcal/mol and 164 kcal/mol
- Tm (Bacillus licheniformis, pH 9, Fluorescence, Sodium pyrophosphate 50 mM, reversible: yes): 56.5 °C

Substance: Tenascin, P24821 Y869F
- ddG of mutation (higher = less stable) [14]: -3.22 kcal/mol

Substance: Spectrin alpha chain, erythrocytic 1, P02549 A2023V
- Tm [15]: 60.5 °C
- change of melting temperature, mutant - wild type (higher = more stable) [15]: -2 °C

Substance: Peptidyl-prolyl cis-trans isomerase D wild type, P26882
- Tm [16]: 45.1 °C
- unfolding enthalpy (calorimetric) [16]: 165 kcal/mol

Substance: Dystrophin, P11532 L172H
- Tm [17]: 42.1 °C
- change of melting temperature, mutant - wild type (higher = more stable) [17]: -1.28 °C

Substance: Dystrophin, P11532 L427P
- Tm [18]: 50 °C
- change of melting temperature, mutant - wild type (higher = more stable) [18]: -3.4 °C

Substance: Fibronectin P1619A, P02751
- ddG of mutation (higher = less stable) [13]: 0.42 kcal/mol

Substance: Carbonic anhydrase 2 wild type, P00921
- Tm [19]: 39 °C
- heat capacity change of unfolding [19]: 4 kcal/mol/K
- Tm [20]: 48 °C
- heat capacity change of unfolding [20]: 4 kcal/mol/K
- Tm [21]: 56 °C
- heat capacity change of unfolding [21]: 4 kcal/mol/K
- Tm [22]: 62.5 °C
- heat capacity change of unfolding [22]: 3.9 kcal/mol/K
- Tm [23]: 64 °C
- heat capacity change of unfolding [23]: 3.8 kcal/mol/K
- unfolding enthalpy (calorimetric) [23]: 190 kcal/mol

Substance: Tropomyosin alpha-1 chain G24A|G27A, Q91472 G24A G27A
- Tm [4]: 38.1 °C
- change of melting temperature, mutant - wild type (higher = more stable) [4]: 1.1 °C

Substance: Cell division control protein 42 homolog T35A, P60953
- Tm [24]: 64.2 °C
- change of melting temperature, mutant - wild type (higher = more stable) [24]: 0.7 °C

Substance: Endo-1,4-beta-xylanase wild type, Q59962
- unfolding enthalpy (calorimetric) (Streptomyces sp. S38, pH 7.5, DSC, MOPS 20 mM, NaCl 100 mM, reversible: No): 108 kcal/mol and 125 kcal/mol and 127 kcal/mol

Substance: Titin V12689A, Q8WZ42
- ddG of mutation (higher = less stable) [2]: 2.37 kcal/mol

Substance: S-adenosylmethionine synthase isoform type-1 wild type, P13444
- unfolding free energy (Rattus norvegicus, pH 8, 25 °C, Urea, Fluorescence, Tris-HCl 50 mM, MgCl2 4 mM, transition: 3, reversible: yes): 6.12 kcal/mol and 4.41 kcal/mol

Substance: Twitchin, Q23551 Y4220F
- ddG of mutation (higher = less stable) (Caenorhabditis elegans, pH 7, 20 °C, Urea, Fluorescence, Sodium phosphate 50 mM, reversible: yes, structure 1WIT): -2.15 kcal/mol

Substance: Peptidyl-prolyl cis-trans isomerase D K227A, P26882
- Tm [3]: 45.2 °C
- change of melting temperature, mutant - wild type (higher = more stable) [3]: 0.12 °C
- unfolding enthalpy (calorimetric) [3]: 159 kcal/mol

Substance: Fibronectin D1544K, P02751
- Tm (Homo sapiens, pH 2.4, CD, glycine hydrochloride 20 mM, NaCl 0.1 M, reversible: yes, structure 1TTG): 69 °C
- Tm [25]: 77 °C
- Tm [26]: 70 °C
- Tm [27]: 78 °C

Substance: Fibronectin D1544N, P02751
- Tm [25]: 82 °C
- Tm [26]: 69 °C
- Tm [27]: 80 °C

Substance: Soluble cytochrome b562 A62G, P0ABE7
- ddG of mutation (higher = less stable) (Escherichia coli, pH 5, 25 °C, Urea, Fluorescence, NaAc 50 mM, structure 6BQG): 0.57 kcal/mol

Substance: Tropomyosin alpha-1 chain G24A, Q91472
- Tm [4]: 36.9 °C
- change of melting temperature, mutant - wild type (higher = more stable) [4]: -0.1 °C

Substance: Titin C12723S|C12739S, Q8WZ42 C12723S C12739S
- ddG of mutation (higher = less stable) [28]: -3.2 kcal/mol
- denaturant m value [28]: 2.8 kcal/mol/M

Substance: Titin I12699A, Q8WZ42
- ddG of mutation (higher = less stable) [2]: 2.89 kcal/mol

Substance: Creatine kinase M-type wild type, P00563
- Tm (Oryctolagus cuniculus, pH 8, DSC, Hepes-NaOH 30 mM, NaCl 0.1 M, reversible: No): 53.7 °C and 53.8 °C

Substance: S-adenosylmethionine synthase isoform type-1 R265H, P13444
- denaturant m value [29]: 1.15 kcal/mol/M
- denaturant midpoint (higher = more stable) [29]: 3.82 M
- unfolding free energy [29]: 4.41 kcal/mol

Substance: Titin F12749L, Q8WZ42
- ddG of mutation (higher = less stable) [2]: 3.06 kcal/mol

Substance: Cell division control protein 42 homolog wild type, P60953
- Tm (Homo sapiens, DSC, 1 X - PBS, Mg2+ 0.5 mM): 63.5 °C

Substance: Soluble cytochrome b562 wild type, P0ABE7
- unfolding free energy (Escherichia coli, pH 7, 20 °C, Urea, CD, Potassium phosphate 50 mM, reversible: yes): 6.6 kcal/mol and 3.2 kcal/mol
- heat capacity change of unfolding [30]: 2.4 kcal/mol/K and 1.1 kcal/mol/K
- unfolding enthalpy (van 't Hoff) [30]: 94 kcal/mol and 53 kcal/mol

Substance: Titin V12762A, Q8WZ42
- ddG of mutation (higher = less stable) [2]: 4.78 kcal/mol

Substance: Tenascin, P24821 Y869A
- ddG of mutation (higher = less stable) [14]: -1.88 kcal/mol

Substance: Titin L12736A, Q8WZ42
- ddG of mutation (higher = less stable) [2]: 5.27 kcal/mol

Substance: Fibronectin Y1605F, P02751
- ddG of mutation (higher = less stable) (Homo sapiens, pH 5, 25 °C, Urea, Fluorescence, Sodium acetate 50 mM, reversible: yes, structure 1TTG): -2.03 kcal/mol
